Assay results taken from the supplement of paper PMC10567573.
± gives the standard deviation.

Assay: protein stability index of a GFP-peptide fusion (GPS, HEK-293T) (PSI 1-6); higher = more stable
[1] = treatment: DMSO, c terminus: a fixed tail appended
[2] = treatment: MLN4924 1 uM, 8 h, c terminus: a fixed tail appended
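Note: 24-mer peptide tiles fused after GFP, lentivirally expressed, FACS-sorted into six equal bins by GFP/DsRed ratio, decoded by Illumina sequencing, PSI is the read-weighted mean bin number.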

Sequence | protein stability index [1] | protein stability index [2] | protein stability index (treatment: DMSO, c terminus: native) | protein stability index (treatment: MLN4924 1 uM, 8 h, c terminus: native)
TILNVRDPTGASIALFTARLHHPH [PTPN9] | 2.5 ± 0.21 | 1.89 ± 0.18 |  | 
GSSSDNRTYRYSNRYCGGPGPPIT [DYRK1B] | 2.57 ± 0.42 | 2.75 ± 0.19 |  | 
HAPGVPRILVGNRLHLAFKRQVPT [RAB40C] | 2.69 ± 0.17 | 2.72 ± 0.13 |  | 
APELVERVQSVDFMRTDPVCQKLL [KLHL14] | 3.85 ± 0.36 | 4.12 ± 0.2 |  | 
GILHYAHGDSQQTHLLKQGRSSMG [CRY1] | 3.6 ± 0.23 | 3.52 ± 0.3 |  | 
ISAVNYDFDEEYFSNTSELAKDFI [DAPK3] | 3.01 ± 0.21 | 3.28 ± 0.58 |  | 
GSLRTLELGSESQGASESQAPGEE [HDAC6] | 5.52 ± 0.29 | 5.58 ± 0.22 |  | 
SYLMDHFIPSSHNDRDFLTRIFTE [PPEF2] | 2.5 ± 0.19 | 2.51 ± 0.28 |  | 
FHRSQTLSYRNGYAIVRRPTVGIG [EFHC1] | 2.44 ± 0.39 | 2.54 ± 0.22 |  | 
ECFETLRGDERILSILRHQNLLKE [CHGA] | 2.9 ± 0.24 | 2.85 ± 0.34 |  | 
RNIMNLIDIVAIIPYFITLGTELA [KCNA3] | 2.84 ± 0.4 | 2.97 ± 0.21 |  | 
PPARPRPRSPECRMIPGQPPASAR [IRX6] | 4.95 ± 0.21 | 4.9 ± 0.12 |  | 
FKLADPDEVARRWGKRKNKPKMNY [ETS2] | 3.48 ± 0.48 | 3.67 ± 0.13 |  | 
EPQSEPVRVLDMVAKLESECLKRQ [FBXO34] | 4.88 ± 0.28 | 4.9 ± 0.054 |  | 
DAQEIMQSLRDLGVKISEQQAEKI [SLC25A25] | 3.81 ± 0.21 | 3.79 ± 0.47 |  | 
KPKTTNIELQGVPNDEVHPLLGVK [RBBP5] | 4.65 ± 0.7 | 4.75 ± 0.34 |  | 
WTLYKILDSCKQLTLAQGAGEEDP [SMG5] | 2.32 ± 0.18 | 2.56 ± 0.28 |  | 
LMKKIGQCPMRVQKEVAGFVLNRL [CRYL1] | 2.34 ± 0.38 | 2.53 ± 0.24 |  | 
KCLKFLGSRHPTLVLPLVPELLST [INTS4] | 2.29 ± 0.41 | 2.23 ± 0.18 |  | 
HVLLEGEGLGQSLGNFKDDLLNVC [TRIM29] | 3.06 ± 0.041 | 3.1 ± 0.17 |  | 
VFCDMETDGGGWLVFQRRMDGQTD [TNXB] | 2.9 ± 0.27 | 2.98 ± 0.096 |  | 
PLSPPPINYNGIFSLKQEETLDYG [NEUROD6] | 4.63 ± 0.38 | 4.36 ± 0.37 |  | 
TAFLPDSKCLVDDGTGRMPTLKKC [GALNT9] | 4.17 ± 0.18 | 4.16 ± 0.31 |  | 

Sequence | protein stability index [1] | protein stability index [2] | protein stability index (treatment: DMSO, c terminus: native) | protein stability index (treatment: MLN4924 1 uM, 8 h, c terminus: native)
LRDTYKLWVPQPPPRTIKRTRRRL [PWWP2B] | 3.46 ± 0.19 | 3.64 ± 0.21 |  | 
LASTSKPVVKLLHNRSNNKYSYTS [KCTD13] | 3.08 ± 0.2 | 3.27 ± 0.28 |  | 
HQHEEIQNVRNHIHSCFSDVTCFL [ATL3] | 2.26 ± 0.15 | 2.26 ± 0.13 |  | 
PPFMIALACLHVACVVQQKDARQW [CCNC] | 3.3 ± 0.18 | 3.08 ± 0.35 |  | 
LTEIYRIVSQKQIADRAAHDESPG [RAB11B] | 3.52 ± 0.12 | 3.52 ± 0.27 |  | 
THQTQPGIRRARDKALSGGKRKET [NET1] | 4.79 ± 0.23 | 5 ± 0.17 |  | 
DDDAQILPSPVQACSEDSLFLRCS [DRICH1] | 4.17 ± 0.16 | 4.02 ± 0.37 |  | 
AIETAMEDLKGHVAETSGETIQGF [TPRG1] | 4.82 ± 0.26 | 5.03 ± 0.3 |  | 
HEGKTDSERTDTAADGETTATEEL [EPB41L3] | 5.65 ± 0.34 | 5.51 ± 0.21 |  | 
LCPGDLIQAINGESTELMTHLEAQ [PDLIM4] | 4.51 ± 0.26 | 4.54 ± 0.094 |  | 
DDHLQQPLQNQKILKRTGQRYEHG [ZNF649] | 4.84 ± 0.085 | 4.97 ± 0.23 |  | 
TAISSFTRHVFTCGRRGIKVWSLT [TLE6] | 2.15 ± 0.47 | 2.16 ± 0.44 |  | 
YPSYKVREKIETVKYPTYPEAEK [FUT8] |  |  | 4.07 ± 0.19 | 4.16 ± 0.57
PDKEEQLPFGPFNGTAWTYHSQDE [PKD2L1] | 4.67 ± 0.1 | 4.76 ± 0.38 |  | 
PPLRNYFLEEDNYKNIKRPPGDIM [USP39] | 3.19 ± 0.19 | 3.37 ± 0.17 |  | 
PRNGDQWHEIRQGRLPRIPQVLSQ [WEE1] | 3.12 ± 0.17 | 3.32 ± 0.5 |  | 
QRPLVSVTVSDASWVSELLWSLFV [AUP1] | 2.36 ± 0.2 | 2.14 ± 0.2 |  | 
LTISAAFNIVYIYTSELYPTVIRN [SLC22A15] | 3.19 ± 0.14 | 3.13 ± 0.33 |  | 
DDDKYKITLKYPHYFPVMKKCCIP [NLN] | 2.9 ± 0.23 | 2.49 ± 0.47 |  | 
GVGFATRKVAGMAKPNMIISVNGD [FABP4] | 3.02 ± 0.28 | 3.04 ± 0.47 |  | 
SKEDKDLDSSEGSSQEDEDLGLSE [SPANXN3] | 5.57 ± 0.33 | 5.62 ± 0.28 |  | 
PDQEAEPQEAAGAQGRAGAPVPEP [EPB41L3] | 5.69 ± 0.21 | 5.69 ± 0.23 |  | 
ATQIQQLLQDKQFELALQLAEMKD [VPS39] | 3.11 ± 0.32 | 3.41 ± 0.43 |  | 

Sequence | protein stability index [1] | protein stability index [2] | protein stability index (treatment: DMSO, c terminus: native) | protein stability index (treatment: MLN4924 1 uM, 8 h, c terminus: native)
IRQLATSGRFIVIIPRTVIDGLDL [SMG5] | 2.88 ± 0.61 | 2.68 ± 0.7 |  | 
NSAEACQYVITHAKVNILLVENDQ [ACSBG2] | 2.18 ± 0.52 | 2.62 ± 0.25 |  | 
YSPAVMNYSIPSNVTNLEGGPGRQ [ESR2] | 3.8 ± 0.4 | 3.75 ± 0.4 |  | 
AMPDPAGPDGHLPAVATLCDLFDR [ESRRA] | 4.27 ± 0.23 | 4.4 ± 0.23 |  | 
LYRGLAPNFMKVIPAVSISYVVYE [SLC25A25] | 2.71 ± 0.67 | 3.25 ± 0.51 |  | 
PYTELRKQPLRKYVTPSDFDQLKQ [EFHC1] | 3.57 ± 0.2 | 3.51 ± 0.11 |  | 
RTGSLFKIWLVVPSLLELAWEKLL [KLHDC10] | 2.84 ± 0.27 | 2.78 ± 0.31 |  | 
KPPYSYATLICMAMQASKATKITL [FOXJ1] | 2.78 ± 0.57 | 2.8 ± 0.53 |  | 
LPLMDLCRRSIRSALGRQRLQDIS [SPSB4] | 2.62 ± 0.12 | 2.53 ± 0.34 |  | 
QAMEEDLIVGLQGMDLNLEAEALA [HDAC6] | 4.8 ± 0.23 | 4.92 ± 0.25 |  | 
EKRGCPRTALEYCKLILSLEPDED [TCF25] | 3.37 ± 0.17 | 3.42 ± 0.097 |  | 
ADIISTVEFNHTGELLATGDKGGR [PPP2R2C] | 4.52 ± 0.42 | 4.66 ± 0.44 |  | 
FYHCSNDDEGDSYSDNPCSCSQSH [SPRY1] | 4.28 ± 0.076 | 4.31 ± 0.25 |  | 
DRKSVKFVETRLRDLPDTPRRFTF [TRIM39] | 2.98 ± 0.12 | 3.08 ± 0.29 |  | 
PERSYVFNGDFVDRGKDSVEILMI [PPEF2] | 2 ± 0.38 | 2.23 ± 0.31 |  | 
IEAGAHMDATNAFKKTAYELLDEK [FEM1A] | 4.79 ± 0.21 | 5.04 ± 0.34 |  | 
ETQKLLCKNGETLLGAVNFFVSSI [ARFIP2] | 2.49 ± 0.52 | 2.25 ± 0.36 |  | 
LLGSSTACIVVLDRTSHRLHTANL [PPTC7] | 2.66 ± 0.39 | 2.46 ± 0.32 |  | 
HAEIIAWIRICRPGSIIGPQQHFL [CDC14A] | 3.91 ± 0.99 | 2.74 ± 1.6 |  | 
YVSLGRLGAAKGALHPGCFAPLHP [CEBPB] | 3.44 ± 0.94 | 2.73 ± 0.17 |  | 
NDRMSTRHDGYATNDGNHPSCQET [RBMY1A1] | 5.17 ± 0.19 | 5.22 ± 0.1 |  | 
VAETSGETIQGFWLLTKIDHWNNE [TPRG1] | 2.11 ± 0.36 | 2.31 ± 0.26 |  | 
YEKKFDTFIPLEPLPQIPNLPFWV [SPATS1] | 2.24 ± 0.31 | 1.95 ± 0.18 |  | 

Sequence | protein stability index [1] | protein stability index [2] | protein stability index (treatment: DMSO, c terminus: native) | protein stability index (treatment: MLN4924 1 uM, 8 h, c terminus: native)
RIDSQFLIGDTLLVAPVLEPGKQE [MYORG] | 3.77 ± 0.18 | 3.81 ± 0.26 |  | 
MAEISRIQYEMEYTEGISQRMRVP [MFF] | 2.67 ± 0.3 | 2.79 ± 0.6 |  | 
AKDLRAPPEQGKIFIARRSLLDEL [SOAT1] | 3.23 ± 0.37 | 3.15 ± 0.33 |  | 
SFQLEISGFLKEMACPYSVLISGD [FAM98B] | 2.56 ± 1.3 | 2.11 ± 0.74 |  | 
LHPRGKNNFSPLHLAVDKNTTCVG [FEM1C] | 3.39 ± 0.13 | 3.43 ± 0.12 |  | 
AWKHGNIHLSAPCIYSEVMEALDL [PCMTD2] | 2.71 ± 0.26 | 2.73 ± 0.27 |  | 
IIVSIVHSVFEFLAFKNDIQFWNS [CLPTM1] | 3.5 ± 0.83 | 2.75 ± 0.65 |  | 
KFKGWVSYSTSEQAELSYKKVSEG [DLC1] | 3.52 ± 0.22 | 3.54 ± 0.39 |  | 
PVGRSWHSLTPVSSDHLFLFGGFT [KLHDC2] | 2.3 ± 0.53 | 1.87 ± 0.096 |  | 
LSELPPLEDMGQPPAEEAEQPGAL [FKBP8] | 5.59 ± 0.18 | 5.72 ± 0.24 |  | 
PSDLDQFSDSSLIEDSQALHKRPK [LURAP1L] | 5.49 ± 0.24 | 5.43 ± 0.11 |  | 
PPALQNNLLSPLLTGTESPFDLEQ [NFE2L1] | 4.97 ± 0.29 | 5.04 ± 0.1 |  | 
DSLDEARSSGSEGTPADTGDLSPG [PWWP2B] | 5.6 ± 0.18 | 5.52 ± 0.15 |  | 
SAEELRKARSNSTLSKSEYMVIEE [KCNA3] | 4.87 ± 0.17 | 4.93 ± 0.16 |  | 
VALPTEAEFQLVRDVVLCSLLNFL [TENT5C] | 2.14 ± 0.28 | 2.13 ± 0.37 |  | 
LSEALKEATKEVHTQAENAEFMRN [HMOX1] | 4.92 ± 0.1 | 5.01 ± 0.48 |  | 
GRGAVVPGAGLRRPTYTPPSIMPQ [ZBTB22] | 3.51 ± 0.3 | 3.74 ± 0.063 |  | 
PTPKCLRLCFFPFVENGHSESSGQ [CFHR2] | 2.54 ± 0.093 | 2.72 ± 0.24 |  | 
ESTLYPNPYHQPYISRKYFATRPG [TPRG1] | 2.76 ± 0.43 | 3.03 ± 0.088 |  | 
KNTFEFLKENNFQPYPLPHVRHMA [CLK3] | 2.54 ± 0.26 | 2.51 ± 0.12 |  | 
